Test results from US20110245145.

Tested on: HA-βarrestin2 1-185

Q: endogenous Src of Hep3B hepatocytes was tested. Which “insulin-stimulated phosphorylations of Akt, GSK3P, and Foxo1” value did it give?
A: Its value is “markedly reduced in the presence of βarrestin2 1-185”.
